The values below come from patent US20260242478A1 (published 2026).

Where no end group is shown, it is not given here.

First the molecules themselves.
B1: Phage-784 (peptide)
peptide: YCDGHTGVYFYKCL
notes: not shown: fused to the pIII filament protein of the bacteriophage
B2: Phage-787 (peptide)
peptide: YCDGHLAMYMDKCL
notes: as for B1
B3: Phage-785 (peptide)
peptide: YCEGHTSEYMNKCL
notes: as for B1
B4: Phage-802 (peptide)
peptide: YCDGHSSEYIVKCL
modifications: cysteine pairing not given here; also: displayed on phage by fusion to pIII, pIII and linker sequence not given here
notes: Clonal phage of the Peptide-87 library; not shown: fused to the pIII filament protein of the bacteriophage
B5: Phage-812 (peptide)
peptide: YCAGHSSEYIWKCL
modifications: cysteine pairing not given here; also: displayed on phage by fusion to pIII, pIII and linker sequence not given here
notes: as for B4
B6: Phage-809 (peptide)
peptide: YCDGHAREYMTKCL
modifications: cysteine pairing not given here; also: displayed on phage by fusion to pIII, pIII and linker sequence not given here
notes: as for B4
B7: Phage-813 (peptide)
peptide: YCEGHSAEFMTKCL
modifications: cysteine pairing not given here; also: displayed on phage by fusion to pIII, pIII and linker sequence not given here
notes: as for B4
B8: Phage-811 (peptide)
peptide: YCDGHSSMYMAKCL
modifications: cysteine pairing not given here; also: displayed on phage by fusion to pIII, pIII and linker sequence not given here
notes: as for B4
B9: Phage-804 (peptide)
peptide: YCEGHSAEYIFKCL
modifications: cysteine pairing not given here; also: displayed on phage by fusion to pIII, pIII and linker sequence not given here
notes: as for B4
B10: Phage-806 (peptide)
peptide: YCDGHSAEYMEKCI
modifications: cysteine pairing not given here; also: displayed on phage by fusion to pIII, pIII and linker sequence not given here
notes: as for B4
B11: Phage-808 (peptide)
peptide: YCEGHAPQYLNKCL
modifications: cysteine pairing not given here; also: displayed on phage by fusion to pIII, pIII and linker sequence not given here
notes: as for B4
B12: Phage-807 (peptide)
peptide: YCDGHLPLYMHKCL
modifications: cysteine pairing not given here; also: displayed on phage by fusion to pIII, pIII and linker sequence not given here
notes: as for B4
B13: Phage-801 (peptide)
peptide: YCDGHLPMYFAKCM
modifications: cysteine pairing not given here; also: displayed on phage by fusion to pIII, pIII and linker sequence not given here
notes: as for B4
B14: Phage-810 (peptide)
peptide: YCDGHTEEYMDKCL
modifications: cysteine pairing not given here; also: displayed on phage by fusion to pIII, pIII and linker sequence not given here
notes: as for B4
B15: Phage-805 (peptide)
peptide: YCEGHSPMYMQKCM
modifications: cysteine pairing not given here; also: displayed on phage by fusion to pIII, pIII and linker sequence not given here
notes: as for B4
B16: Phage-803 (peptide)
peptide: YCEGHAAEYMWKCL
modifications: cysteine pairing not given here; also: displayed on phage by fusion to pIII, pIII and linker sequence not given here
notes: as for B4
B17: Phage-814 (Peptide-87 library peptide, SEQ ID NO: 1130) (peptide)
peptide: YCQGHSAEYMMKCL
B18: Phage-800 (peptide)
peptide: YCDGHSPAYMAKCL
B19: Phage-798 (peptide)
peptide: YCEGHRPEYMAKCL
B20: Phage-797 (peptide)
peptide: YCAGHAPEYMFKCM
B21: Phage-795 (peptide)
peptide: YCAGHLPEYLSKCL
B22: Phage-793 (peptide)
peptide: YCDGHSLQYLGKCL
B23: Phage-792 (peptide)
peptide: YCDGHSAAYIMKCL
B24: Phage-791 (peptide)
peptide: YCDGHSWAYMWKCL
B25: Phage-790 (peptide)
peptide: YCAGHSSEYMWKCL
B26: Phage-796 (peptide)
peptide: YCEGHLQIYMSKCL
B27: Phage-799 (peptide)
peptide: YCEGHLPEYMRKCL
B28: Phage-788 (peptide)
peptide: YCDGHMPEYLAKCL
B29: Phage-794 (peptide)
peptide: YCEGHSQEYMQKCL
B30: Phage-789 (peptide)
peptide: YCEGHAAEYMSKCL

The first assay addresses T1, Anti-CD28 Fab (SEQ ID NOs: 696, 697).
T1 construct: Biotinylated Fab captured on neutravidin coated plates in the phage ELISA
Nature of the assay: phage ELISA; biotinylated anti-CD28 Fab on neutravidin plate, bound phage detected with anti-M13 HRP antibody. For orientation: An ELISA detects its analyte on a solid surface through an enzyme-linked reagent.
T1 sequence (VH, as listed by the source, chain 1 of 2): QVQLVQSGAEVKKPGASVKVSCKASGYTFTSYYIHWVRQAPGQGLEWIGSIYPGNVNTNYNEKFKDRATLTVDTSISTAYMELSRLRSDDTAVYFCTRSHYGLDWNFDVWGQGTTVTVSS
T1 sequence (VL, as listed by the source, chain 2 of 2): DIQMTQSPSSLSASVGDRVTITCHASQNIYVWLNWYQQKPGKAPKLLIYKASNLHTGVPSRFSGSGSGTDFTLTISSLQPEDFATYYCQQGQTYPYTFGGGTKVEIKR
Method: (§1) After panning, phage infected bacteria were plated out and colonies picked into 96 well blocks. Clonal phage was then amplified and separated from bacterial cells via centrifugation.
(§2) Clonal phage were harvested as crude supematants and screened via standard ELISAs. […] Prior to the addition of clonal phage, wells were incubated with blocking buffer and CD28 antigen or blocking buffer alone. Without washing or aspirating, clonal phage supematants were then added to the wells and incubated for a short time. Wells were then washed followed by detection of bound phage using a horse radish conjugated anti-M13 antibody. Clonal phage of interest were then sent for sequence analysis.
As for B1, the “Anti-CD28 Fab signal (phage binding ELISA)” value was 1.87.
As for B2, the “Anti-CD28 Fab signal (phage binding ELISA)” value turned out to be 1.86.
The same measure, in the same setting: to B3 belongs 1.87.

A further assay concerns the target T2, Anti-CD28 Fab (SEQ ID NOs: 696, 697).
T2 construct: Biotinylated and captured on neutravidin coated plates in the phage ELISA
The experiment in a line: phage binding ELISA; biotinylated Fab on neutravidin plate, clonal phage supernatant, anti-M13 HRP detection.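 Note: phage from clones picked after panning, added to wells pre-incubated with blocking buffer with or without CD28 antigen, then briefly incubated and washed before detection.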
T2 sequence (VH, as listed by the source, chain 1 of 2): as the sequence (VH, as listed by the source, chain 1 of 2) above
T2 sequence (VL, as listed by the source, chain 2 of 2): as the sequence (VL, as listed by the source, chain 2 of 2) above
Method: as §1, §2
With B4, the “Anti-CD28 Fab (SEQ ID NOs: 696, 697) signal” value turned out to be 1.83.
As for B5, the “Anti-CD28 Fab (SEQ ID NOs: 696, 697) signal” value came to 1.82.
Regarding B6, the “Anti-CD28 Fab (SEQ ID NOs: 696, 697) signal” value amounted to 1.82.
Turning to B7, the “Anti-CD28 Fab (SEQ ID NOs: 696, 697) signal” value is 1.81.
For the molecule B8, the “Anti-CD28 Fab (SEQ ID NOs: 696, 697) signal” value is 1.82.
Consider B9, for which the “Anti-CD28 Fab (SEQ ID NOs: 696, 697) signal” value was 1.83.
For B10, the “Anti-CD28 Fab (SEQ ID NOs: 696, 697) signal” value is 1.83.
Consider B11, for which the “Anti-CD28 Fab (SEQ ID NOs: 696, 697) signal” value was 1.82.
On to B12, for which the “Anti-CD28 Fab (SEQ ID NOs: 696, 697) signal” value came out at 1.82.
As for B13, the “Anti-CD28 Fab (SEQ ID NOs: 696, 697) signal” value is 1.83.
For B14, the “Anti-CD28 Fab (SEQ ID NOs: 696, 697) signal” value was 1.82.
Still for that read-out and setting: to B15 belongs 1.83; to B16, 1.83.

Another assay deals with Anti-CD28 Fab (SEQ ID NOs: 696, 697). The experiment in a line: phage ELISA; clonal phage on biotinylated anti-CD28 Fab captured on neutravidin, anti-M13 HRP detection.
Target sequence in this assay (VH, as listed by the source, chain 1 of 2): as the sequence (VH, as listed by the source, chain 1 of 2) above
Target sequence in this assay (VL, as listed by the source, chain 2 of 2): as the sequence (VL, as listed by the source, chain 2 of 2) above
Method: as §1, §2
In the case of B17, the “Phage binding ELISA, Anti-CD28 Fab signal” value amounted to 1.81.

The next assay shares this target. The experiment in a line: phage binding ELISA; biotinylated anti-CD28 Fab on neutravidin plate, clonal phage supernatant, anti-M13 HRP detection.
Target sequence in this assay (VH, as listed by the source, chain 1 of 2): as the sequence (VH, as listed by the source, chain 1 of 2) above
Target sequence in this assay (VL, as listed by the source, chain 2 of 2): as the sequence (VL, as listed by the source, chain 2 of 2) above
Method: as §1, §2
Consider B18, for which the “Anti-CD28 Fab signal (phage binding ELISA)” value worked out at 1.83.
As to B19, the “Anti-CD28 Fab signal (phage binding ELISA)” value turned out to be 1.83.
For B20, the “Anti-CD28 Fab signal (phage binding ELISA)” value was 1.83.
Take B21: the “Anti-CD28 Fab signal (phage binding ELISA)” value turned out to be 1.84.
For B22, the “Anti-CD28 Fab signal (phage binding ELISA)” value was determined as 1.84.
Same read-out and setting: to B23 belongs 1.84; to B24, 1.85; to B25, 1.85.
As for B26, the “Anti-CD28 Fab signal (phage binding ELISA)” value came out at 1.84.
For B27, the “Anti-CD28 Fab signal (phage binding ELISA)” value was 1.83.
With B28, the “Anti-CD28 Fab signal (phage binding ELISA)” value is 1.86.
B29: the “Anti-CD28 Fab signal (phage binding ELISA)” value was found to be 1.84.
As for B30, the “Anti-CD28 Fab signal (phage binding ELISA)” value amounted to 1.86.

The next assay concerns the target T2, Anti-CD28 Fab (SEQ ID NOs: 696, 697). Nature of the assay: phage binding ELISA; Fab on plate pre-incubated with CD28 antigen as competitor, anti-M13 HRP detection.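 Note: crude clonal phage supernatants screened by ELISA, with comparison wells pre-incubated in blocking buffer only, lacking CD28 antigen.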
Method: as §1, §2
B4: the “Anti-CD28 Fab signal in the presence of CD28” value was 0.06.
The same measure, in the same setting: the figure for B5 is 0.06; for B6 it is 0.06; for B7 it is 0.06.
In the case of B8, the “Anti-CD28 Fab signal in the presence of CD28” value was 0.06.
Regarding B9, the “Anti-CD28 Fab signal in the presence of CD28” value was found to be 0.05.
With B10, the “Anti-CD28 Fab signal in the presence of CD28” value was determined as 0.07.
In the case of B11, the “Anti-CD28 Fab signal in the presence of CD28” value turned out to be 0.08.
For B12, the “Anti-CD28 Fab signal in the presence of CD28” value was found to be 0.07.
Turning to B13, the “Anti-CD28 Fab signal in the presence of CD28” value was 0.06.
In the case of B14, the “Anti-CD28 Fab signal in the presence of CD28” value came out at 0.09.
For B15, the “Anti-CD28 Fab signal in the presence of CD28” value came to 0.06.
As for B16, the “Anti-CD28 Fab signal in the presence of CD28” value was 0.07.

The next assay concerns the target Anti-CD28 Fab (SEQ ID NOs: 696, 697). The experiment in a line: phage binding ELISA; anti-CD28 Fab on plate pre-incubated with CD28 antigen as competitor, anti-M13 HRP detection.
Target sequence in this assay (VH, as listed by the source, chain 1 of 2): as the sequence (VH, as listed by the source, chain 1 of 2) above
Target sequence in this assay (VL, as listed by the source, chain 2 of 2): as the sequence (VL, as listed by the source, chain 2 of 2) above
Method: as §1, §2
For B18, the “Anti-CD28 Fab signal in the presence of CD28 (phage binding ELISA)” value worked out at 0.1.
The same measure, in the same setting: the figure for B19 is 0.07; for B20 it is 0.06; for B21 it is 0.07.
B22: the “Anti-CD28 Fab signal in the presence of CD28 (phage binding ELISA)” value was found to be 0.09.
Turning to B23, the “Anti-CD28 Fab signal in the presence of CD28 (phage binding ELISA)” value worked out at 0.09.
Take B24: the “Anti-CD28 Fab signal in the presence of CD28 (phage binding ELISA)” value was determined as 0.13.
Take B25: the “Anti-CD28 Fab signal in the presence of CD28 (phage binding ELISA)” value amounted to 0.07.
With B26, the “Anti-CD28 Fab signal in the presence of CD28 (phage binding ELISA)” value stood at 0.14.
Consider B27, for which the “Anti-CD28 Fab signal in the presence of CD28 (phage binding ELISA)” value worked out at 0.06.
With B28, the “Anti-CD28 Fab signal in the presence of CD28 (phage binding ELISA)” value was 0.07.
B29: the “Anti-CD28 Fab signal in the presence of CD28 (phage binding ELISA)” value is 0.05.
For the molecule B30, the “Anti-CD28 Fab signal in the presence of CD28 (phage binding ELISA)” value is 0.07.

The next assay concerns the target T1, Anti-CD28 Fab (SEQ ID NOs: 696, 697). The experiment in a line: phage ELISA on captured anti-CD28 Fab; competitor CD28 antigen pre-incubated in the wells.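 Note: clonal phage supernatants added to wells preloaded with CD28 antigen in blocking buffer, control wells buffer only, bound phage read via HRP-linked anti-M13 antibody.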
Method: as §1, §2
In the case of B1, the “Anti-CD28 Fab signal in the presence of CD28 (phage binding ELISA)” value is 0.08.
On the same count and under the same terms, to B2 belongs 0.08; to B3, 0.06.

The next assay addresses Anti-CD28 Fab (SEQ ID NOs: 696, 697). The assay is described as above.
Target sequence in this assay (VH, as listed by the source, chain 1 of 2): as the sequence (VH, as listed by the source, chain 1 of 2) above
Target sequence in this assay (VL, as listed by the source, chain 2 of 2): as the sequence (VL, as listed by the source, chain 2 of 2) above
Method: as §1, §2
On to B17, for which the “Phage binding ELISA, Anti-CD28 Fab signal in the presence of CD28” value amounted to 0.07.
